Measured values as given in the supplement of paper PMC9112550, “Optimization of the antimicrobial peptide Bac7 by deep mutational scanning” (BMC Biology, 2022).

Tested on: Escherichia coli TOP10
Experiment: shrunken log2 fold change of peptide-encoding DNA abundance (4.5 h post-induction vs induction); higher = less antimicrobial activity (less host growth inhibition)
Conditions: time post-induction: 4.5 h; library: site-saturation at positions 5, 18, 19, 20
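Also: peptides expressed intracellularly from a pBAD plasmid library in pooled LB shake-flask culture, induced with 0.3% L-arabinose, DNA abundance read by NGS, three biological replicates, DESeq2 with apeglm shrinkage.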

| Sequence | shrunken log2 fold change |
| --- | --- |
| RRIRKRPPRLPRPRPRPWYAPRP | -0.132 |
| RRIRCRPPRLPRPRPRPRLNPRP | 0.00503 |
| RRIRQRPPRLPRPRPRPRLMPRP | 0.00478 |
| RRIRKRPPRLPRPRPRPQDPPRP | 1.55 |
| RRIRWRPPRLPRPRPRPKNYPRP | -0.152 |
| RRIRERPPRLPRPRPRPCVFPRP | 0.0387 |
| RRIRERPPRLPRPRPRPWKYPRP | -0.0185 |
| RRIRRRPPRLPRPRPRPFIAPRP | -0.253 |
| RRIRLRPPRLPRPRPRPTQGPRP | 0.852 |
| RRIRIRPPRLPRPRPRPAWIPRP | -0.187 |
| RRIRDRPPRLPRPRPRPASVPRP | 0.0326 |
| RRIRTRPPRLPRPRPRPKWDPRP | -0.0626 |
| RRIRYRPPRLPRPRPRPLVIPRP | -0.782 |
| RRIRKRPPRLPRPRPRPRCTPRP | 0.555 |
| RRIRARPPRLPRPRPRPPSKPRP | 0.491 |
| RRIRFRPPRLPRPRPRPVCHPRP | -0.705 |
| RRIRCRPPRLPRPRPRPSAMPRP | 0.272 |
| RRIRSRPPRLPRPRPRPCSLPRP | -0.484 |
| RRIRSRPPRLPRPRPRPILPPRP | 0.161 |
| RRIRCRPPRLPRPRPRPSDYPRP | -1.15 |
| RRIRSRPPRLPRPRPRPLQRPRP | 0.0641 |
| RRIRQRPPRLPRPRPRPHHYPRP | -0.617 |
| RRIRMRPPRLPRPRPRPWGIPRP | 0.0388 |
| RRIRRRPPRLPRPRPRPPEQPRP | 0.033 |
| RRIRPRPPRLPRPRPRPWYKPRP | 0.215 |

| Sequence | shrunken log2 fold change |
| --- | --- |
| RRIRIRPPRLPRPRPRPCNDPRP | -0.0787 |
| RRIRWRPPRLPRPRPRPEDRPRP | 0.213 |
| RRIRFRPPRLPRPRPRPFLFPRP | -0.457 |
| RRIRHRPPRLPRPRPRPPVNPRP | 0.0303 |
| RRIRNRPPRLPRPRPRPILGPRP | -0.00992 |
| RRIRHRPPRLPRPRPRPGADPRP | 0.255 |
| RRIRPRPPRLPRPRPRPVCTPRP | 0.0082 |
| RRIRWRPPRLPRPRPRPFWVPRP | 0.00637 |
| RRIRMRPPRLPRPRPRPFPRPRP | -0.0223 |
| RRIRCRPPRLPRPRPRPCLPPRP | -0.439 |
| RRIRKRPPRLPRPRPRPDFKPRP | -0.0323 |
| RRIRCRPPRLPRPRPRPGQSPRP | 0.0538 |
| RRIRARPPRLPRPRPRPYGRPRP | 0.0766 |
| RRIRGRPPRLPRPRPRPTACPRP | 1.35 |
| RRIRDRPPRLPRPRPRPQEMPRP | -0.01 |
| RRIRRRPPRLPRPRPRPAGGPRP | 0.327 |
| RRIRHRPPRLPRPRPRPHPVPRP | -0.248 |
| RRIRDRPPRLPRPRPRPGKFPRP | -0.0736 |
| RRIRVRPPRLPRPRPRPEWDPRP | 0.454 |
| RRIRIRPPRLPRPRPRPQRGPRP | 0.0568 |
| RRIRVRPPRLPRPRPRPHTKPRP | 0.11 |
| RRIRGRPPRLPRPRPRPIGDPRP | 0.667 |
| RRIRERPPRLPRPRPRPFWAPRP | 0.084 |
| RRIRMRPPRLPRPRPRPPKGPRP | 0.873 |
| RRIRIRPPRLPRPRPRPSYNPRP | -1.15 |

| Sequence | shrunken log2 fold change |
| --- | --- |
| RRIRPRPPRLPRPRPRPGLFPRP | 0.162 |
| RRIRTRPPRLPRPRPRPGNEPRP | -0.000989 |
| RRIRNRPPRLPRPRPRPANCPRP | -0.185 |
| RRIRDRPPRLPRPRPRPLGHPRP | 0.0421 |
| RRIRWRPPRLPRPRPRPYRYPRP | 0.0299 |
| RRIRYRPPRLPRPRPRPPEEPRP | 0.0153 |
| RRIRHRPPRLPRPRPRPDITPRP | -0.212 |
| RRIRKRPPRLPRPRPRPNDHPRP | -0.177 |
| RRIRRRPPRLPRPRPRPMYLPRP | -0.0501 |
| RRIRTRPPRLPRPRPRPFENPRP | -0.0132 |
| RRIRYRPPRLPRPRPRPRKVPRP | -0.208 |
| RRIRLRPPRLPRPRPRPVSQPRP | 0.0349 |
| RRIRQRPPRLPRPRPRPGSAPRP | 0.104 |
| RRIRARPPRLPRPRPRPHGEPRP | -0.00651 |
| RRIRERPPRLPRPRPRPDHYPRP | -0.738 |
| RRIRLRPPRLPRPRPRPGRGPRP | 0.696 |
| RRIRCRPPRLPRPRPRPLAFPRP | -0.165 |
| RRIRIRPPRLPRPRPRPVGIPRP | 0.16 |
| RRIRWRPPRLPRPRPRPLTAPRP | 0.436 |
| RRIRQRPPRLPRPRPRPMTVPRP | -0.00149 |
| RRIRFRPPRLPRPRPRPFCVPRP | -0.722 |
| RRIRERPPRLPRPRPRPHYNPRP | -1.12 |
| RRIRGRPPRLPRPRPRPWIEPRP | -0.0591 |
| RRIRCRPPRLPRPRPRPNIKPRP | -0.647 |
| RRIRIRPPRLPRPRPRPLCTPRP | -0.407 |

| Sequence | shrunken log2 fold change |
| --- | --- |
| RRIRARPPRLPRPRPRPWRFPRP | 0.323 |
| RRIRVRPPRLPRPRPRPSMQPRP | -0.223 |
| RRIRSRPPRLPRPRPRPSIQPRP | -0.497 |
| RRIRPRPPRLPRPRPRPEIEPRP | 0.0922 |
| RRIRRRPPRLPRPRPRPNSYPRP | -0.116 |
| RRIRKRPPRLPRPRPRPNWVPRP | -0.087 |
| RRIRPRPPRLPRPRPRPRWQPRP | 0.754 |
| RRIRHRPPRLPRPRPRPCDNPRP | -0.207 |
| RRIRIRPPRLPRPRPRPDFMPRP | -0.661 |
| RRIRLRPPRLPRPRPRPNMPPRP | -0.265 |
| RRIRTRPPRLPRPRPRPPTWPRP | 0.0779 |
| RRIRKRPPRLPRPRPRPVWTPRP | 0.485 |
| RRIRNRPPRLPRPRPRPHELPRP | -0.0632 |
| RRIRLRPPRLPRPRPRPDRQPRP | 0.00462 |
| RRIRERPPRLPRPRPRPRRGPRP | 0.142 |
| RRIRFRPPRLPRPRPRPILNPRP | -0.692 |
| RRIRARPPRLPRPRPRPFFHPRP | -0.0215 |
| RRIRFRPPRLPRPRPRPNIKPRP | -0.504 |
| RRIRMRPPRLPRPRPRPLKQPRP | 0.513 |
| RRIRLRPPRLPRPRPRPGNYPRP | 0.0343 |
| RRIRCRPPRLPRPRPRPGWTPRP | 0.0289 |
| RRIRTRPPRLPRPRPRPWGWPRP | -0.0131 |
| RRIRMRPPRLPRPRPRPSTSPRP | -0.0821 |
| RRIRPRPPRLPRPRPRPFRAPRP | 0.116 |
| RRIRWRPPRLPRPRPRPPGAPRP | 0.904 |

| Sequence | shrunken log2 fold change |
| --- | --- |
| RRIRLRPPRLPRPRPRPADVPRP | -0.0469 |
| RRIRQRPPRLPRPRPRPNCRPRP | 0.13 |
| RRIRIRPPRLPRPRPRPPLPPRP | 0.796 |
| RRIRHRPPRLPRPRPRPKDQPRP | -0.172 |
| RRIRERPPRLPRPRPRPILIPRP | -0.0809 |
| RRIRKRPPRLPRPRPRPMCQPRP | -0.0286 |
| RRIRIRPPRLPRPRPRPCTRPRP | 0.0316 |
| RRIRIRPPRLPRPRPRPMYMPRP | 0.00884 |
| RRIRFRPPRLPRPRPRPEEYPRP | -0.00963 |
| RRIRDRPPRLPRPRPRPDCHPRP | 0.469 |
| RRIRQRPPRLPRPRPRPWSCPRP | -0.462 |
| RRIRPRPPRLPRPRPRPIGTPRP | -0.39 |
| RRIRWRPPRLPRPRPRPYMDPRP | -0.551 |
| RRIRWRPPRLPRPRPRPSWNPRP | -0.212 |
| RRIRHRPPRLPRPRPRPTVTPRP | -0.0378 |
| RRIRSRPPRLPRPRPRPMMAPRP | -0.199 |
| RRIRARPPRLPRPRPRPPCLPRP | 0.224 |
| RRIRVRPPRLPRPRPRPAHGPRP | 0.0221 |
| RRIRHRPPRLPRPRPRPGRVPRP | -0.129 |
| RRIRWRPPRLPRPRPRPKCMPRP | 0.531 |
| RRIRYRPPRLPRPRPRPKNLPRP | -0.36 |
| RRIRARPPRLPRPRPRPSKGPRP | -0.133 |
| RRIRTRPPRLPRPRPRPVFRPRP | -0.516 |
| RRIRQRPPRLPRPRPRPRNRPRP | 0.0911 |
| RRIRQRPPRLPRPRPRPGIWPRP | 0.0216 |

| Sequence | shrunken log2 fold change |
| --- | --- |
| RRIRDRPPRLPRPRPRPSPHPRP | -0.0473 |
| RRIRNRPPRLPRPRPRPFGSPRP | -0.0105 |
| RRIRWRPPRLPRPRPRPSVDPRP | 0.0991 |
| RRIRMRPPRLPRPRPRPSNQPRP | -0.0365 |
| RRIRSRPPRLPRPRPRPPFWPRP | 0.837 |
| RRIRHRPPRLPRPRPRPDIRPRP | 0.0226 |
| RRIRCRPPRLPRPRPRPCRNPRP | -0.154 |
| RRIRLRPPRLPRPRPRPHHKPRP | -0.644 |
| RRIRMRPPRLPRPRPRPGGEPRP | 1 |
| RRIRGRPPRLPRPRPRPREWPRP | 0.843 |
| RRIRMRPPRLPRPRPRPMPWPRP | 0.169 |
| RRIRDRPPRLPRPRPRPCMDPRP | 0.0285 |
| RRIRNRPPRLPRPRPRPSGDPRP | -0.252 |
| RRIRERPPRLPRPRPRPWGTPRP | -0.121 |
| RRIRTRPPRLPRPRPRPIVVPRP | -9.82e-05 |
| RRIRPRPPRLPRPRPRPFMEPRP | -0.554 |
| RRIRYRPPRLPRPRPRPGMYPRP | -1.44 |
| RRIRNRPPRLPRPRPRPDDFPRP | -0.00663 |
| RRIRSRPPRLPRPRPRPYSCPRP | -0.386 |
| RRIRKRPPRLPRPRPRPCELPRP | -0.00602 |
| RRIRIRPPRLPRPRPRPEWYPRP | -0.142 |
| RRIRYRPPRLPRPRPRPTMQPRP | -0.0804 |
| RRIRMRPPRLPRPRPRPFFNPRP | -0.0839 |
| RRIRKRPPRLPRPRPRPRYQPRP | -0.0143 |
| RRIRWRPPRLPRPRPRPRMWPRP | 0.36 |
